In one experiment the target is T1, VEGFR2(4-7) (human, UniProt P35968 321-813).
T1 construct: also called domains 4-7, Phe321 to Leu813
Kind of experiment: immunofluorescent staining of transfected 293T cells.

The target of a further experiment is T2, VEGFR2(del2-3) (human, UniProt P35968 20-813).
T2 construct: Expressed on 293T cells; also called VEGFR2 with domains 2 and 3 deleted
The description is as above.

The next experiment concerns the target T3, VEGFR2(2-7) (human, UniProt P35968 111-813).
T3 construct: also called domains 2-7, Ala111 to Leu813
The description is as above.

The next experiment deals with T4, VEGFR2(M2) (human, UniProt P35968 20-813).
T4 construct: Expressed on 293T cells; single substitutions derived from the printed replacement of the seven-residue stretch
T4 chain: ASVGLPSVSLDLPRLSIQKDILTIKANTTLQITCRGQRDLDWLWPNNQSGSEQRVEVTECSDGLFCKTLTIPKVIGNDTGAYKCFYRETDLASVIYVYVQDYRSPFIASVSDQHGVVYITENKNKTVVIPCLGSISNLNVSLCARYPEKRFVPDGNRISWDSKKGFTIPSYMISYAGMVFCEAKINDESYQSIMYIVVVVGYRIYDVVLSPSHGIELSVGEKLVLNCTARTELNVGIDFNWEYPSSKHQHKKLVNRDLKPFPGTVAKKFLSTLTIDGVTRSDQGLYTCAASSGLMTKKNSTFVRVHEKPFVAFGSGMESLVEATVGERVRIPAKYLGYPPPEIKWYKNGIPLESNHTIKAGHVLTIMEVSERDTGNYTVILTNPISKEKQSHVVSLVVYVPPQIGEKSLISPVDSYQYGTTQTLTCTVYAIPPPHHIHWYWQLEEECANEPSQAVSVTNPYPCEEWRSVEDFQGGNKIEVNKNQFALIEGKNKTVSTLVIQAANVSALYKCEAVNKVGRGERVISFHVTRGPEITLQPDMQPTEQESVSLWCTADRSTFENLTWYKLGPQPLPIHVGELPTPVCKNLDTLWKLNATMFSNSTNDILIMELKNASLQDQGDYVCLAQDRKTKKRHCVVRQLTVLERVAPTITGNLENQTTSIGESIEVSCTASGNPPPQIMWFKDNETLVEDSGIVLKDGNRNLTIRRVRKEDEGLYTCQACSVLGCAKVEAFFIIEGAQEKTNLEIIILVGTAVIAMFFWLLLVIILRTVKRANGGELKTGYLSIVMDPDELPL
The experiment is described as above.

The next experiment addresses T5, VEGFR2(del3) (human, UniProt P35968 20-813).
T5 construct: Expressed on 293T cells; also called VEGFR2 with domain 3 deleted
The experiment is described as above.

The next experiment has as its target T6, VEGFR2(M1) (human, UniProt P35968 20-813).
T6 construct: Expressed on 293T cells; single substitutions derived from the printed replacement of the six-residue stretch; also called VEGFR2-M1 mutant protein
T6 chain: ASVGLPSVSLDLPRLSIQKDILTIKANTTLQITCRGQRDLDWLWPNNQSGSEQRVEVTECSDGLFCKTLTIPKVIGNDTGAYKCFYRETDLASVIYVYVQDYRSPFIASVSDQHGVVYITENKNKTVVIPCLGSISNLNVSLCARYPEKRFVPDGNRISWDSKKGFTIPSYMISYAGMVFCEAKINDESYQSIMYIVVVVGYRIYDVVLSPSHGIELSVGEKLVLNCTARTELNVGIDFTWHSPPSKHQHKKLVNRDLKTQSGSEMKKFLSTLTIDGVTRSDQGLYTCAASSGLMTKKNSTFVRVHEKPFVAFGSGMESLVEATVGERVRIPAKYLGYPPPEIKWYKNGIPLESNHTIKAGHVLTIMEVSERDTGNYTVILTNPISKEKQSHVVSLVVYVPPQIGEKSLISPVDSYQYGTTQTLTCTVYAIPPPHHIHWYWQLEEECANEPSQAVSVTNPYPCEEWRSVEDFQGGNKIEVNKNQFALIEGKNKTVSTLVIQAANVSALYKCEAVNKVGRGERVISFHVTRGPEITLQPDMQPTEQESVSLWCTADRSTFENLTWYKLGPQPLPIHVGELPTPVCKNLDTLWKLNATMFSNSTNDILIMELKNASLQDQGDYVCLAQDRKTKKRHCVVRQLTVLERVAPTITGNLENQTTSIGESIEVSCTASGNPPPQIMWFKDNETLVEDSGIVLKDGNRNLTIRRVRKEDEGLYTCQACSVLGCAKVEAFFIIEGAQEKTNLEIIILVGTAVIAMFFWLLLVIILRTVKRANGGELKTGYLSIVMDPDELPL
Described as above.

The target in the next experiment is T7, VEGFR2(1-7) (human, UniProt P35968 20-813).
T7 construct: Expressed on 293T cells; also called full-length extracellular region of VEGFR2, domains 1-7, Met1 to Leu813
Described as above.

The target in experiment [1] is T8, VEGFR2 on tumor vascular endothelium (frozen sections of human lung cancer specimens) (human, UniProt P35968).
T8 construct: endogenous, on CD31-positive tumor vascular endothelium in frozen tissue sections; also called human tumor vasculature
Kind of experiment: immunofluorescence on frozen sections of human lung cancer, scFv detected by anti-E tag and rhodamine secondary antibody, CD31 co-staining.

The target of experiment [2] is T9, VEGFR2 on the cell surface of human umbilical vein endothelial cells (HUVEC) (human, UniProt P35968 20-1356).
T9 construct: Endogenous receptor of human cells; also called cell-surface VEGFR2; cellular VEGFR2
Kind of experiment: flow cytometry on HUVECs, 1x10^10 cfu phage, anti-M13 and PE-labelled secondary antibody. The protocol: About 1×10⁴ HUVEC were incubated with the selected anti-VEGFR2 phage clones at 4° C. for 1 hour in FACS buffer (PBS containing 1% fetal bovine serum). After the cells were washed with FACS buffer, they were first incubated with mouse anti-M13 phage Ab for 1 hr at 4° C., and then with R-phycoerythrin-conjugated goat anti-mouse IgG (Jackson Immuno Research) for 30 min at 4° C. Flow cytometry was performed with a FACSCantoII (BD), and emission fluorescence intensity was measured with FACS Diva software (BD) to quantitatively compare binding affinities.
(§1) After four rounds of affinity selection (biopanning), the titer of bound phage increased by as much as 3,455-fold (FIG. 1A).

For a further experiment, the target named is T10, c-Met-Fc control protein (UniProt P08581 25-932, limits assumed).
T10 construct: Bought control protein; also called Met-Fc (R&D); c-Met-Fe; not shown: Fc part of the bought fusion protein; not described
T10 sequence (P08581 25-932 limits assumed): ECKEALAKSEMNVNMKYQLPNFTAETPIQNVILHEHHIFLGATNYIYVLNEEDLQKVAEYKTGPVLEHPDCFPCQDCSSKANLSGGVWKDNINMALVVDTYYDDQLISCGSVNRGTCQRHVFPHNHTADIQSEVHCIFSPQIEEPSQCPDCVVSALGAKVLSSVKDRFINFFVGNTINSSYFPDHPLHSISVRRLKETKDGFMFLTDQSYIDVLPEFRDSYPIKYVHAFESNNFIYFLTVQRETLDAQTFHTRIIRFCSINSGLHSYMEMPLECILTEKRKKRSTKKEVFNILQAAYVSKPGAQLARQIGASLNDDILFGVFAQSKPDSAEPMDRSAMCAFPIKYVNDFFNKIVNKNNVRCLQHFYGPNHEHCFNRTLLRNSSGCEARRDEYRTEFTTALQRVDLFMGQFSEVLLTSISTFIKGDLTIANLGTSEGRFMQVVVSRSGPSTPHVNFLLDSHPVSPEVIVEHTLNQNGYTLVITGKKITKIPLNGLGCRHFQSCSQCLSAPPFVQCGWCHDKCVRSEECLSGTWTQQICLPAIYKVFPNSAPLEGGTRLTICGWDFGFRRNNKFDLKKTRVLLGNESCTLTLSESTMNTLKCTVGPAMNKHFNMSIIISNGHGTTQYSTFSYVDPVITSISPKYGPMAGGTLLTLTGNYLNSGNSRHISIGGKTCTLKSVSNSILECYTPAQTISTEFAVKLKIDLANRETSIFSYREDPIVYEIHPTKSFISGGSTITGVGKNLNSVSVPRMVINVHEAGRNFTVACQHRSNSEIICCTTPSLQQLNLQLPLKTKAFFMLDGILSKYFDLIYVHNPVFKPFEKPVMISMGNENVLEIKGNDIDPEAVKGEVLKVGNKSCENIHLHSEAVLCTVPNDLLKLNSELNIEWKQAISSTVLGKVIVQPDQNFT
Kind of experiment: phage ELISA on coated MET-Fc, anti-M13-HRP detection. The protocol: The selected phages were further examined by ELISA screening. The 96-well plates were coated with […] of VEGFR2-Fc, Met-Fc (R&D), or BSA (Sigma) protein in 0.1 M sodium bicarbonate overnight at 4° C. After blocking with 1% BSA in PBS (w/v) for 2 hr at room temperature, 70-randomly selected phage clones were added to the plates at a 1:2 dilution in 1% BSA, and incubated for 1 hr at room temperature. Following washes with PBST, the plates were incubated with a 1:2000 dilution of horseradish peroxidase (HRP)-conjugated mouse anti-M13 phage antibody (GE) for 1 hr. After washing with PBST, the colorimetric reaction was developed with the peroxidase substrate ortho-phenylenediamine (OPD; Sigma) plus H₂O₂ for 15 min, and then terminated by the addition of 3 N HCl. The absorbance at 490 nm was determined using a microplate reader (SpectraMax, Molecular Devices). Plasmid DNA of positive clones were isolated and sequenced using the pCANTAB5 sequencing primer set.
as §1

B1: R2S8 (scFv, V domains shown)
VH: QVQLVQSGGGLVKPGGSLRLSCAASGFTFSSYSMSWVRQAPGKGLEWVSSISSSSSYIYYADSVKGRFTISRDNAKNSLYLQMNSLRAEDTAVYYCARSTDAFDIWGQGTMVTVSS
VL: DIVMTQSPSSLSASVGDRVTITCRASQRISNYLNWYQHKSGEDPKLLIYAASSLQSGVPSRFSGSGSGTDFTLTISSLQPEDFATYYCQQYDRYPPTFGQGTKLEIK
notes: also called soluble anti-VEGFR2 scFv from phage clone R2PC8
For the molecule B1, the binding result with VEGFR2(4-7) is given as “no binding”; with VEGFR2(del2-3), “no binding”; in the experiment with VEGFR2(2-7) it was “binds”; with VEGFR2(M2) it was “binds”; with VEGFR2(del3) it was “no binding”; with VEGFR2(M1), “no binding”. For the same molecule, the binding result (with VEGFR2(1-7); in [1]) was “binds” in each case.

B2: R2PC8 (scFv, V domains shown)
VH: QVQLVQSGGGLVKPGGSLRLSCAASGFTFSSYSMSWVRQAPGKGLEWVSSISSSSSYIYYADSVKGRFTISRDNAKNSLYLQMNSLRAEDTAVYYCARSTDAFDIWGQGTMVTVSS
VL: DIVMTQSPSSLSASVGDRVTITCRASQRISNYLNWYQHKSGEDPKLLIYAASSLQSGVPSRFSGSGSGTDFTLTISSLQPEDFATYYCQQYDRYPPTFGQGTKLEIK
notes: also called anti-VEGFR2 scFv phage clone 8
For the molecule B2, the binding result is recorded as “binds” in [2] and “no binding (tested: 1x10^9 cfu)” with c-Met-Fc control protein.

B3: R2S12 (scFv, V domains shown)
VH: QVNLRESGGGLVKPGGSLRLSCAASGFTFGSYTMNWVRQAPGKGLEWVASITSGSSYIFYTDSVKGRFTISRDNSRSSLFLQMNSLRAEDTAIYYCARGSASAFDIWGQGTMVTVSS
VL: DIQMTQSPSSLSASVGDRVTITCKASDDIINYLNWYQQKPGEAPKLLIYDASILETGVPSRFSGSGSGTDFTFTISSLQPEDIATYYCQQYDILPLTFGGGTKLEIK
notes: Soluble scFv made in E. coli HB2151 from phage clone R2PC12, with E tag; also called soluble anti-VEGFR2 scFv from phage clone R2PC12
For B3, the binding result in the experiment with VEGFR2(4-7) was “no binding”; with VEGFR2(del2-3) it was “no binding”; with VEGFR2(2-7), “binds”; with VEGFR2(M2) it was “binds”; with VEGFR2(del3), “no binding”; with VEGFR2(M1), “no binding”. The binding result (with VEGFR2(1-7); in experiment [1]) was “binds” each time.

B4: R2PC12 (scFv, V domains shown)
VH: QVNLRESGGGLVKPGGSLRLSCAASGFTFGSYTMNWVRQAPGKGLEWVASITSGSSYIFYTDSVKGRFTISRDNSRSSLFLQMNSLRAEDTAIYYCARGSASAFDIWGQGTMVTVSS
VL: DIQMTQSPSSLSASVGDRVTITCKASDDIINYLNWYQQKPGEAPKLLIYDASILETGVPSRFSGSGSGTDFTFTISSLQPEDIATYYCQQYDILPLTFGGGTKLEIK
notes: also called anti-VEGFR2 scFv phage clone 12
Consider B4, for which the binding result in experiment [2] is reported as “binds”; with c-Met-Fc control protein, “no binding (tested: 1x10^9 cfu)”.

B5: R2S29 (scFv, V domains shown)
VH: QVQLQQSGAEMKKSGSSVKVSCKASGGNFISKGISWVRQAPGQGLEWMGGIIPLFGTGNYAQKFQGRVTITADESTTTVYLQLTSLTPEDTAMYFCATADVDYSDSLEAFDMWGQGTMVTVSS
VL: DIVMTQSPSSLSASVGDRVTITCRASQSINNYLNWYQQKPGKAPNLLIYGASSLQSGVPSRFRGSGSGTDFTLTISSLQPEDFATYYCQQSYSTPLFGQGTKLEIK
notes: also called soluble anti-VEGFR2 scFv from phage clone R2PC29
As for B5, in experiment [1], the binding result is on record as “binds”.

B6: R2PC29 (scFv, V domains shown)
VH: QVQLQQSGAEMKKSGSSVKVSCKASGGNFISKGISWVRQAPGQGLEWMGGIIPLFGTGNYAQKFQGRVTITADESTTTVYLQLTSLTPEDTAMYFCATADVDYSDSLEAFDMWGQGTMVTVSS
VL: DIVMTQSPSSLSASVGDRVTITCRASQSINNYLNWYQQKPGKAPNLLIYGASSLQSGVPSRFRGSGSGTDFTLTISSLQPEDFATYYCQQSYSTPLFGQGTKLEIK
notes: also called anti-VEGFR2 scFv phage clone 29
For the molecule B6, the values for the binding result (in experiment [2]; with c-Met-Fc control protein) were “binds” and “no binding (tested: 1x10^9 cfu)”, respectively.

B7: R2PC28 (scFv, V domains shown)
VH: EVQLVESGGALVQPGGSLRLSCVGSEFTFSHYNLHWVRQAPGKGLEWLAVISDDGRNKYYGDSVKGRFTISRDNSKNTLYLQMNGLRAEDTAVYYCARVPTVWRGGVYDIWGQGTMVTVSS
VL: EIVLTQSPATLSLSPGERATLSCRASQSVGSYLAWYQQRPGQPPRLLIYDASNRATGVAARFSGSGSGTDFTLTIDSLEAEDAATYYCHQSSSLPRTFGQGTKLEIK
notes: also called anti-VEGFR2 scFv phage clone 28
Take B7: the binding result is “binds” in [2] and “no binding (tested: 1x10^9 cfu)” with c-Met-Fc control protein.

The values above are taken from patent US20180127504A1 (ACADEMIA SINICA, published 2018).
